{
  "source": "IntAct's records for PubMed 22405203",
  "parents": {"B1": {"name": "Hypoxia-inducible factor prolyl hydroxylase (Caenorhabditis elegans), G5EBV0 (parent)", "chain": "MSSAPNDDCEIDKGTPSTASLFTTLMLSQPSSSTAVLQCTYCGSSCTSSQLQTCLFCGTVAYCSKEHQQLDWLTHKMICKSLQTSGMVPSNLMPQAAPAVMAPIPPTVSFDDPALTTSLLLSLQNNPILNQTISNFPPTFSITSKTEPEPSIPIQIPQRISSTSTVPFSSEGSAFKPYRNTHVFNSISSESMSSMCTSHEASLEHMSSASLAMFPTSSTAQSDISRLAQVLSLAGDSPASLALVTTSVPSTASTATIPPPATTTSSATSSGKSETITVGKEKIIQTDDPDIQIIETEGGSKPTVSRTRKRPTPSNSADPKINYKDHNKNVVYSTTLQEHQKHLQNRGLALSIHQAMVLRLRYIAEHVIRSLNEFGWAVVDNFLGSDHYKFTAKEIERLYERGLFSPGQLMEAKHKDEFHIKDIRSDHIYWYDGYDGRAKDAATVRLLISMIDSVIQHFKKRIDHDIGGRSRAMLAIYPGNGTRYVKHVDNPVKDGRCITTIYYCNENWDMATDGGTLRLYPETSMTPMDIDPRADRLVFFWSDRRNPHEVMPVFRHRFAITIWYMDKSERDKALAKGKESDAACASKKENDPTSSSLNSLIGSLLRPRKNPSTHDLSKLDLRLFPSTSSDPALVSAADEDRVDISADFQSTSSLAHPESTDSGVSLSTFNVAHNHMERTTSLQSISDHFRSERSHERRSSTSSDQDLDEGLPPPPSTNPEYYI", "partner": "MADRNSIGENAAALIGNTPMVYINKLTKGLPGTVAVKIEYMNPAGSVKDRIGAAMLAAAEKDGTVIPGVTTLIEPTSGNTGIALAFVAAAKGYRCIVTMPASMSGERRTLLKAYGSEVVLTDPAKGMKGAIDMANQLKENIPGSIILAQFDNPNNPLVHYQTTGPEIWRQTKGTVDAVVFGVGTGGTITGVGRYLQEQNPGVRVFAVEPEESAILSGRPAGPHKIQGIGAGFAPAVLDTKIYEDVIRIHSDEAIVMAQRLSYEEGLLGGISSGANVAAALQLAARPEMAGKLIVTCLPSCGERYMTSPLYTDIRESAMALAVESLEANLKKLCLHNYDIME"}},
  "data": [
    {"variants_of": "B1", "settings": "with cysk1_caeel cysl-1, Q93244", "values": [
      {"variant": "E720K", "effect of a mutation on the interaction": "disrupting interaction strength"}
    ]},
    {"variants_of": "B1", "settings": "with cysk1_caeel cysl-1, Q93244", "remark": "another data set of the same source", "values": [
      {"variant": "E720K", "effect of a mutation on the interaction": "decreasing interaction strength"},
      {"variant": "I723A", "effect of a mutation on the interaction": "decreasing interaction strength"}
    ]}
  ]
}
